# Test results taken from publication PMC8303780, “Mutational Analysis of Redβ Single Strand Annealing Protein: Roles of the 14 Lysine Residues in DNA Binding and Recombination In Vivo”.
# T1: Redβ K69A (bacteriophage λ, UniProt P03698 1-261, K69A)
# T1 sequence: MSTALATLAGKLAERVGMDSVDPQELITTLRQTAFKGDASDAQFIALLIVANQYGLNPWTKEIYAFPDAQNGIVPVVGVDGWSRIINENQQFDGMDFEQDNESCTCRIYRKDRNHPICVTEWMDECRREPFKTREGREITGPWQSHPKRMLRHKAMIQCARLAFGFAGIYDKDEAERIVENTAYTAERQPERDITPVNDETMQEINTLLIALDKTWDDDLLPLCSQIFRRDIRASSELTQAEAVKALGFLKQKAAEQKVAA
# T2: Redβ K148A (bacteriophage λ, UniProt P03698 1-261, K148A)
# T2 sequence: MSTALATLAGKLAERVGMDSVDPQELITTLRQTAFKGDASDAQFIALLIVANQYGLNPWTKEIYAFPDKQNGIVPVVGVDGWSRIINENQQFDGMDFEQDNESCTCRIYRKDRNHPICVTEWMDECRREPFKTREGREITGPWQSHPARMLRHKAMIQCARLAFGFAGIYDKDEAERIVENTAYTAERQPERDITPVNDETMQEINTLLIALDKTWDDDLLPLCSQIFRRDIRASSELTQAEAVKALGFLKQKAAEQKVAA
# T3: Redβ K111A (bacteriophage λ, UniProt P03698 1-261, K111A)
# T3 sequence: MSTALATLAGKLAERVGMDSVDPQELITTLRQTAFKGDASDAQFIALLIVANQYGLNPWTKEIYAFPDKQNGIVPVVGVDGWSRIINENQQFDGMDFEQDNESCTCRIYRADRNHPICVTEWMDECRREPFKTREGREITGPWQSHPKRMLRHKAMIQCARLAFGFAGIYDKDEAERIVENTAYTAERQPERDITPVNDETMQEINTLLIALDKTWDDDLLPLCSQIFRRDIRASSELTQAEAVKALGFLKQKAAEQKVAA
# T4: Redβ K61A (bacteriophage λ, UniProt P03698 1-261, K61A)
# T4 sequence: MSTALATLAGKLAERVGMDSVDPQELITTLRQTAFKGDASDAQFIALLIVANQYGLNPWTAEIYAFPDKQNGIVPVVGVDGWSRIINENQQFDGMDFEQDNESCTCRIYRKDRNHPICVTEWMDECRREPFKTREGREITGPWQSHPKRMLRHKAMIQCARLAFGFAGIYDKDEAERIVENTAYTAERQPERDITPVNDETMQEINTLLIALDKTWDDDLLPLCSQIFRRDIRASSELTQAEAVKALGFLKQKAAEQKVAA
# T5: Redβ K132A (bacteriophage λ, UniProt P03698 1-261, K132A)
# T5 sequence: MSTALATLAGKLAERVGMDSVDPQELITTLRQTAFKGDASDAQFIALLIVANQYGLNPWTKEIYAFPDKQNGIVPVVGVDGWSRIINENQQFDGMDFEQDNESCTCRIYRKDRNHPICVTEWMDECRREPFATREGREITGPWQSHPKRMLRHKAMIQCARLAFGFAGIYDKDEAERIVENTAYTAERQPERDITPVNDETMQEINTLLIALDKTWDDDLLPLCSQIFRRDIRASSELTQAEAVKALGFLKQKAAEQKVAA
# T6: Redβ K154A (bacteriophage λ, UniProt P03698 1-261, K154A)
# T6 sequence: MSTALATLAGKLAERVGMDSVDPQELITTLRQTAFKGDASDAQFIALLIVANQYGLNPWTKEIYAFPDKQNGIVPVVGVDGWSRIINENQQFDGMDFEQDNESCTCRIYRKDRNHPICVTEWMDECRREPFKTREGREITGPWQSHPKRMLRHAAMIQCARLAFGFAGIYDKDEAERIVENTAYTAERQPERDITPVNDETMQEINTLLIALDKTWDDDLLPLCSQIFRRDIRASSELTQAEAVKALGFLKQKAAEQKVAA
# T7: Redβ K172A (bacteriophage λ, UniProt P03698 1-261, K172A)
# T7 sequence: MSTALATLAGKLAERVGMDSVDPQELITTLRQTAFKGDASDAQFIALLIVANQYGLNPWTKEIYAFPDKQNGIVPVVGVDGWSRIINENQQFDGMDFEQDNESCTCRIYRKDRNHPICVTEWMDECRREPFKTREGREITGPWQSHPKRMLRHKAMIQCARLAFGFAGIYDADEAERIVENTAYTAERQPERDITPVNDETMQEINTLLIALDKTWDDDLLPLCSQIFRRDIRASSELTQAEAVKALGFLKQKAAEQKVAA
# Columns and labels:
# Conditions in all cases: protein: recombinant, tags: 6xHis removed by thrombin, residual N-terminal GSH
# Redβ K69A = target: T1, Redβ K69A; experiment: EMSA; PBS; enhanced vs WT; Anisotropy: 50 mM Tris-HCl pH 7.5, 1 mM DTT, 0.1 mg/mL BSA, 10 nM FAM48, 23 °C (Kd per monomer); gel assay: 10 µM Redβ, 50 µM nt of each oligo, PBS, 37 °C, 1% agarose at 22 °C
# Redβ K148A = target: T2, Redβ K148A; experiment: EMSA; PBS; Anisotropy: 50 mM Tris-HCl pH 7.5, 1 mM DTT, 0.1 mg/mL BSA, 10 nM FAM48, 23 °C (Kd per monomer); gel assay: 10 µM Redβ, 50 µM nt of each oligo, PBS, 37 °C, 1% agarose at 22 °C
# Redβ K111A = target: T3, Redβ K111A; experiment: as above
# Redβ K61A = target: T4, Redβ K61A; experiment: as above
# Redβ K132A = target: T5, Redβ K132A; experiment: as above
# Redβ K154A = target: T6, Redβ K154A; experiment: as above
# Redβ K172A = target: T7, Redβ K172A; experiment: as above
Binder,binding result (Redβ K69A; label: 5'-Cy3),binding result (Redβ K148A; label: 5'-Cy3),binding result (Redβ K111A; label: 5'-Cy3),binding result (Redβ K61A; label: 5'-Cy3),binding result (Redβ K132A; label: 5'-Cy3),binding result (Redβ K154A; label: 5'-Cy3),binding result (Redβ K172A; label: 5'-Cy3),binding result (Redβ K69A; label: 5'-Cy5),binding result (Redβ K148A; label: 5'-Cy5),binding result (Redβ K111A; label: 5'-Cy5),binding result (Redβ K61A; label: 5'-Cy5),binding result (Redβ K132A; label: 5'-Cy5),binding result (Redβ K154A; label: 5'-Cy5),binding result (Redβ K172A; label: 5'-Cy5)
GCGGATGGCTTAGAGCAGAATCGCCCTGCATAGCTCGATTTTTGCGGATG (ssDNA) [Cy3 50-mer ssDNA],binds,no binding,no binding,no binding,no binding,no binding,no binding,,,,,,,
CCATCCGCAAAAATCGAGCTATGCAGGGCGATTCTGCTCTAAGCCATCCG (ssDNA) [Cy5 50-mer ssDNA],,,,,,,,binds,no binding,no binding,no binding,no binding,no binding,no binding
